Where two headings read alike, the source gives them in different places.
Legend:
Type in all cases: cell-based, avian influenza A (H5N1)
[1] = test system: all tested strains of H5N1
[2] = test system: bird H5N1 influenza virus strain Duck/MN/1525/81
[3] = test system: humanized H5N1 influenza virus strain Hong Kong/491/1997
[4] = test system: humanized H5N1 influenza virus strain Hong Kong/213/2003
[5] = test system: bird H5N1 influenza virus strain Gull/PA/4175/83
[6] = test system: humanized H5N1 influenza virus strain Vietnam/1203/2004H
[7] = test system: humanized H5N1 influenza virus strain Vietnam/1203/2004H; remark: listed apart in the source
[8] = test system: humanized H5N1 influenza virus strain Vietnam/1203/2004H; remark: listed apart in the source
[9] = test system: bird H5N1 influenza virus strain Duck/MN/1525/81; remark: listed apart in the source
[10] = test system: humanized H5N1 influenza virus strain Hong Kong/213/2003; remark: listed apart in the source
[11] = test system: humanized H5N1 influenza virus strain Hong Kong/491/1997; remark: listed apart in the source
[12] = test system: bird H5N1 influenza virus strain Gull/PA/4175/83; remark: listed apart in the source

B1: Cyanovirin-N (protein, listed as Nostoc ellipsosporum)
chain: LGKFSQTCYNSAIQGSVLTSTCERTNGGYNTSSIDLNSVIENVDGSLKWQPSNFIETCRNTQLAGSSELAAECKTRAQQFVSTKINLDDHIANIDGTLKYE
- activity against all tested strains of H5N1 (in words) [1]: active
- EC90 [2]: 0.7 µg/mL
- EC50 [3]: <0.0032 µg/mL
- IC50 [3]: 3 µg/mL
- activity against the strain (in words) [3]: moderately active
- IC50 [4]: >1 µg/mL
- activity against the strain (in words) [4]: highly active
- EC50 [5]: 0.1 µg/mL
- IC50 [5]: 3 µg/mL
- activity against the strain (in words) [5]: moderately active
- EC90 [6]: 0.2 µg/mL
- EC50 [7]: 0.03 µg/mL
- IC50 [7]: >1 µg/mL
- activity against the strain (in words) [8]: moderately active
- EC50 [9]: 0.5 µg/mL
- IC50 [9]: 2 µg/mL
- IC50 [10]: >1 µg/mL
- EC90 [11]: 0.1 µg/mL
- EC90 [12]: 0.1 µg/mL

Reference: patent publication US20100240578A1 (priority 2006, published 2010)
